Data published in the supplement of paper PMC10724198.
± gives the standard deviation of the averaged measurements.

Tested on: Saccharomyces cerevisiae
Experiment: protein stability index of tFT-peptide fusion (C-terminal peptide) (PSI (0-1 scale)); higher = more stable (slower turnover)
Details: temperature: 30 C
Protocol: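 MPS profiling in S. cerevisiae of the yeast C-terminome library: the last 12 aa of each annotated ORF are fused to the C-terminus of a sfGFP-mCherry timer, after a GGGS linker. Cells are FACS-sorted into 8 mCherry/sfGFP bins and deep-sequenced. PSI runs from 0 (unstable) to 1 (stable); wild type and das1Δ backgrounds, two technical replicates each.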

[1] = genetic background: das1 deletion

Sequence	protein stability index [1]	protein stability index (genetic background: wild type)
RRHFSERRLENK [YPR074W-A C-terminal 12 aa]	0.684 ± 0.022	0.73 ± 0.025
NAIEEELAKMKL [THR4 C-terminal 12 aa]	0.6922 ± 0.0025	0.692 ± 0.035
EVVKRYLKMRQD [PUP3 C-terminal 12 aa]	0.7 ± 0.011	0.5999 ± 0.0049
QFDSENVILSVI [TRS120 C-terminal 12 aa]	0.716 ± 0.023	0.687 ± 0.024
KVGNDHMELKKE [TFG1 C-terminal 12 aa]	0.699 ± 0.013	0.671 ± 0.035
ITFIASLMTLNK [SAC6 C-terminal 12 aa]	0.66916 ± 0.0005	0.679 ± 0.021
GNSVNPYNGRIN [SGF73 C-terminal 12 aa]	0.718 ± 0.019	0.735 ± 0.0081
EIRKIMMEEQPR [CHM7 C-terminal 12 aa]	0.6863 ± 0.0051	0.66 ± 0.0089
PNLSRANFTRNK [RSA1 C-terminal 12 aa]	0.695 ± 0.019	0.699 ± 0.014
SRFRTNRLKGDQ [YNL042W-B C-terminal 12 aa]	0.699 ± 0.027	0.689 ± 0.026
MSSTDWVTKPTY [AFG1 C-terminal 12 aa]	0.6977 ± 0.0026	0.678 ± 0.017
HDDKPWYKAMLE [GAL2 C-terminal 12 aa]	0.7493 ± 0.0048	0.733 ± 0.053
PEGEAPEAFSMK [SEC14 C-terminal 12 aa]	0.7068 ± 0.0023	0.684 ± 0.036
PFGKKKTGLFSL [PRM10 C-terminal 12 aa]	0.723 ± 0.036	0.717 ± 0.03
ITSYNFLGVPFK [YLR406C-A C-terminal 12 aa]	0.746 ± 0.018	0.724 ± 0.043
NAEKAAGQKKED [YLL053C C-terminal 12 aa]	0.695 ± 0.034	0.658 ± 0.018
KKKKNASTCTIL [RSR1 C-terminal 12 aa]	0.7494 ± 0.0014	0.711 ± 0.03
CLREFMNGQRYI [DIA4 C-terminal 12 aa]	0.7021 ± 0.0027	0.68 ± 0.034
LDYLSSYINRRI [FLP1 C-terminal 12 aa]	0.7058 ± 0.00092	0.6948 ± 0.0047
EVLERSVLLRKR [MDJ2 C-terminal 12 aa]	0.699 ± 0.017	0.688 ± 0.01
VDNFISVLKQGQ [LOS1 C-terminal 12 aa]	0.7081 ± 0.0044	0.668 ± 0.0073

Sequence	protein stability index [1]	protein stability index (genetic background: wild type)
HGNVFHIESICG [YLL047W C-terminal 12 aa]	0.655 ± 0.053	0.737 ± 0.031
STFSIVSSISLW [YPL044C C-terminal 12 aa]	0.6894 ± 0.0026	0.665 ± 0.057
HATTVIDGKIKV [YHI9 C-terminal 12 aa]	0.693 ± 0.0079	0.688 ± 0.039
VFDENMYSKYSS [BRO1 C-terminal 12 aa]	0.712 ± 0.012	0.712 ± 0.032
IEVGADSYAEEF [TUB3 C-terminal 12 aa]	0.689 ± 0.018	0.671 ± 0.014
ETPSQTSQEATQ [ERG6 C-terminal 12 aa]	0.731 ± 0.0089	0.722 ± 0.015
AQLLLTLNEETS [CAF40 C-terminal 12 aa]	0.6844 ± 0.0028	0.695 ± 0.032
IYLLSDYEKDNI [CMR2 C-terminal 12 aa]	0.709 ± 0.044	0.684 ± 0.0073
LLRNGDIDTITK [COG3 C-terminal 12 aa]	0.7045 ± 0.0048	0.68 ± 0.016
FCESDSIKMYPT [FYV10 C-terminal 12 aa]	0.706 ± 0.0071	0.698 ± 0.026
AYRTYDISLTEN [DRN1 C-terminal 12 aa]	0.694 ± 0.035	0.656 ± 0.012
PAAKKVVELTQN [LSC2 C-terminal 12 aa]	0.685 ± 0.012	0.58 ± 0.019
QCNFSYLESNYF [CTS1 C-terminal 12 aa]	0.689 ± 0.019	0.749 ± 0.06
STPIAIGIMNIL [YDR271C C-terminal 12 aa]	0.674 ± 0.018	0.697 ± 0.0089
HFLQKFFKLFDN [YMR052C-A C-terminal 12 aa]	0.734 ± 0.0093	0.687 ± 0.015
SDEFVDASEYKD [UTP9 C-terminal 12 aa]	0.7 ± 0.044	0.6722 ± 0.0063
NTTHYNASLLRQ [PHO5 C-terminal 12 aa]	0.688 ± 0.022	0.673 ± 0.017
GARIGLQGYKSH [YNL184C C-terminal 12 aa]	0.70081 ± 0.00013	0.688 ± 0.015
ISIVACALWLVF [DCW1 C-terminal 12 aa]	0.288 ± 0.003	0.291 ± 0.0036
HFANFKRTIEEK [AMD1 C-terminal 12 aa]	0.729 ± 0.049	0.6925 ± 0.0065
CVKVQQFSVIVL [YDR193W C-terminal 12 aa]	0.544 ± 0.013	0.617 ± 0.011

Sequence	protein stability index [1]	protein stability index (genetic background: wild type)
VGADSYAEEEEF [TUB1 C-terminal 12 aa]	0.687 ± 0.032	0.676 ± 0.032
THTHHNPNPTLF [YNL338W C-terminal 12 aa]	0.707 ± 0.011	0.716 ± 0.075
KDEINYLNSKLK [SPA2 C-terminal 12 aa]	0.692 ± 0.07	0.706 ± 0.083
NNDILQNKKLHQ [KIP1 C-terminal 12 aa]	0.686 ± 0.034	0.712 ± 0.053
KQLDLKHMLEMH [MRPL44 C-terminal 12 aa]	0.7 ± 0.0085	0.6897 ± 0.0057
NTFRKIKGDKKN [MDJ1 C-terminal 12 aa]	0.687 ± 0.068	0.758 ± 0.0081
LYWDPSWITRQL [SNF8 C-terminal 12 aa]	0.716 ± 0.019	0.621 ± 0.043
YCIYQILILVKH [YCL065W C-terminal 12 aa]	0.149 ± 0.019	0.171 ± 0.013
NEPTNSDIVELD [UBA2 C-terminal 12 aa]	0.693 ± 0.023	0.676 ± 0.019
LPHFSHLHVHHD [YHR056W-A C-terminal 12 aa]	0.7294 ± 0.0032	0.719 ± 0.032
GDKLISPLKKAF [TKL1 C-terminal 12 aa]	0.675 ± 0.013	0.711 ± 0.044
QRSKSKRQKRRK [YNG1 C-terminal 12 aa]	0.705 ± 0.017	0.652 ± 0.036
IEERLVAIAEQD [SCL1 C-terminal 12 aa]	0.7091 ± 0.0065	0.7 ± 0.017
GRPEQAPECKQS [NAP1 C-terminal 12 aa]	0.688 ± 0.0078	0.648 ± 0.011
NNLHLPGNTGFF [PDC2 C-terminal 12 aa]	0.728 ± 0.0081	0.712 ± 0.043
ANDWKTYENMKK [SIP18 C-terminal 12 aa]	0.7042 ± 0.0029	0.706 ± 0.041
KLRITSQENKTE [BCK1 C-terminal 12 aa]	0.68 ± 0.022	0.766 ± 0.036
HLGKFFVKQKIL [ERP1 C-terminal 12 aa]	0.696 ± 0.042	0.152 ± 0.0043
NSNELEYAPTAN [LIA1 C-terminal 12 aa]	0.686 ± 0.022	0.7 ± 0.11
CLSIIGFLKTKV [YOR015W C-terminal 12 aa]	0.7002 ± 0.0043	0.622 ± 0.023
IIWEKRNPEQKI [ERG11 C-terminal 12 aa]	0.702 ± 0.023	0.7138 ± 0.0069

Sequence	protein stability index [1]	protein stability index (genetic background: wild type)
AEKRDALLKEDA [RPL19A C-terminal 12 aa]	0.6845 ± 0.0059	0.699 ± 0.0074
AKTKFCCCIPFK [YOR376W-A C-terminal 12 aa]	0.7168 ± 0.0059	0.721 ± 0.078
FATFELAMRLLG [YMC1 C-terminal 12 aa]	0.674 ± 0.015	0.194 ± 0.013
LSTKNIDDGMIS [COG7 C-terminal 12 aa]	0.706 ± 0.025	0.679 ± 0.052
REITKCKQIFHK [PTR3 C-terminal 12 aa]	0.691 ± 0.02	0.686 ± 0.028
TLRGLSNAFPTD [MME1 C-terminal 12 aa]	0.7057 ± 0.0043	0.703 ± 0.013
AVERLKLLKDYL [BNA3 C-terminal 12 aa]	0.685 ± 0.013	0.73 ± 0.0074
LKQIEMISGFSL [ADF1 C-terminal 12 aa]	0.707 ± 0.012	0.683 ± 0.053
RGIAAIRESLSN [YIR042C C-terminal 12 aa]	0.6681 ± 0.006	0.697 ± 0.02
KNEEDSTYFSNV [PMR1 C-terminal 12 aa]	0.6935 ± 0.0013	0.698 ± 0.027
DKYPFLLYEVVR [YHR022C-A C-terminal 12 aa]	0.5289 ± 0.0027	0.544 ± 0.027
IEVGNGASVLIQ [TRS65 C-terminal 12 aa]	0.692 ± 0.01	0.691 ± 0.023
HIRKERTLYIYI [PIH1 C-terminal 12 aa]	0.60684 ± 0.00034	0.351 ± 0.0044
IGGLKREAEASA [GDH2 C-terminal 12 aa]	0.695 ± 0.041	0.719 ± 0.0075
RIYHVYGRFLIH [NCA2 C-terminal 12 aa]	0.671 ± 0.027	0.404 ± 0.027
FTRRGWSSFFKQ [PCL9 C-terminal 12 aa]	0.684 ± 0.0086	0.6647 ± 0.0024
ELTKALDLLNSI [VTA1 C-terminal 12 aa]	0.691 ± 0.015	0.694 ± 0.047
LSAIVFLGTSSH [AVT5 C-terminal 12 aa]	0.7155 ± 0.0055	0.704 ± 0.021
IKMIKELGNHRL [RMD6 C-terminal 12 aa]	0.684 ± 0.0078	0.646 ± 0.026
